From publication PMC2241890
Read-outs that look alike come from different tables or passages of the source.

Assays:
Test in all cases: EMSA
[1] = target: T1, HU alpha-beta heterodimer (Escherichia coli, UniProt P0ACF0;P0ACF4 1-90;1-90)
[2] = target: T1, HU alpha-beta heterodimer; remark: listed apart in the source
[3] = target: T1, HU alpha-beta heterodimer; remark: listed apart in the source
[4] = target: T1, HU alpha-beta heterodimer; remark: listed apart in the source
[5] = target: T1, HU alpha-beta heterodimer; remark: listed apart in the source
[6] = target: T1, HU alpha-beta heterodimer; remark: listed apart in the source
[7] = target: T1, HU alpha-beta heterodimer; remark: listed apart in the source
[8] = target: T1, HU alpha-beta heterodimer; remark: listed apart in the source
[9] = target: T1, HU alpha-beta heterodimer; remark: listed apart in the source
[10] = target: T1, HU alpha-beta heterodimer; remark: listed apart in the source

T1 sequence (P0ACF0 whole entry, chain 1 of 2): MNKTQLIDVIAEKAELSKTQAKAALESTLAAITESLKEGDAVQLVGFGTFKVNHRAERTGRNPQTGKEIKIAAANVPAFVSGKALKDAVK
T1 sequence (P0ACF4 whole entry, chain 2 of 2): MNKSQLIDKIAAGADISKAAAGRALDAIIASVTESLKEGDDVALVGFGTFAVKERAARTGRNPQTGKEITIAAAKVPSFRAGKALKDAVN

B1: mismatch 4 (dsDNA)
DNA 1: AGTCTAGACTGCAGTTGAGTCCTTGCTAGGACGGATCCCT
DNA 2: AGGGATCCGTCCTAGCAAATGTTCAACTGCAGTCTAGACT
Q: For B1, which Kd [1] is on record?
A: 21 nM

B2: mismatch 8 (dsDNA)
DNA 1: AGTCTAGACTGCAGTTGAGTCCTTGCTAGGACGGATCCCT
DNA 2: AGGGATCCGTCCTAGCTGATGTAGAACTGCAGTCTAGACT
Q: B2 was tested. Which Kd [2] did it give?
A: 6 nM

B3: dsDNA 40 (dsDNA)
DNA 1: AGTCTAGAGTGCAGTTGAGTCCTTGCTACGACGGATCCCT
DNA 2: AGGGATCCGTCGTAGCAAGGACTCAACTGCACTCTAGACT
Q: For B3, which Kd [3] is on record?
A: 7 nM

B4: mismatch 10 (dsDNA)
DNA 1: AGTCTAGACTGCAGTTGAGTCCTTGCTAGGACGGATCCCT
DNA 2: AGGGATCCGTCCTAGTTGATGTAGCACTGCAGTCTAGACT
Q: B4 was tested. Which Kd [2] did it give?
A: 6 nM

B5: nicked 40 (dsDNA)
DNA 1: AGTCTAGAGTGCAGTTGAGTCCTTGCTACGACGGATCCCT
DNA 2: AGGGATCCGTCGTAGCAAGG
DNA 3: ACTCAACTGCACTCTAGACT
Q: Which Kd [4] does the source give for B5 here?
A: 3 nM

B6: mismatch 6 (dsDNA)
DNA 1: AGTCTAGACTGCAGTTGAGTCCTTGCTAGGACGGATCCCT
DNA 2: AGGGATCCGTCCTAGCAGATGTACAACTGCAGTCTAGACT
Q: B6 was tested. Which Kd [2] did it give?
A: 6 nM

Q: With AGTCTAGAGTGCAGTTGAGTCCTTGCTACGACGGATCCCT (ssDNA) [ssDNA D-40] as the binder, how does the Kd [5] read?
A: 54 nM

Q: Does AGTCTAGAGTGCAGTTGAGTCCTT (ssDNA) [ssDNA D-24] bind [6]?
A: binds

Q: With AGTCTAGAGTGCAGTTGAGTCCTTGCTACGACGGAT (ssDNA) [ssDNA D-36] as the binder, how does the Kd [7] read?
A: 80 nM

Q: Which Kd [8] does the source give for AGTCTAGAGTGCAGTTGAGTCCTTGCTA (ssDNA) [ssDNA D-28] here?
A: 755 nM

Q: Which Kd [9] does the source give for AGTCTAGAGTGCAGTTGAGTCCTTGCTACGAC (ssDNA) [ssDNA D-32] here?
A: 114 nM

Q: With AGTCTAGAGTGCAGTTGAGTCCTTGCTACGACGGATCCCTTAGGTCAG (ssDNA) [ssDNA D-48] as the binder, how does the Kd [7] read?
A: 41 nM

Q: AGTCTAGAGTGCAGTTGAGTCCTTGCTACGACGGATCCCTTAGG (ssDNA) [ssDNA D-44] was tested. Which Kd [10] did it give?
A: 40 nM
